Measurements as given in patent US20200109196A1 (MOGAM INSTITUTE FOR BIOMEDICAL RESEARCH, published 2020).
Residue numbers refer to the chain shown, from its start. One block for each binder: values may come before it.

Experiments:
[1] = target: T1, recombinant human CEACAM-1/CD66a protein (R&D systems; Cat. No. 2244-CM) (human, UniProt P13688 35-428); test: ELISA on coated antigen (0.25 µg/ml), antibody 3 µg/ml, HRP anti-human IgG Fc, OD450
T1 construct: Bought protein; captured on anti-His (His1K) biosensors in the Octet assay, so it carries a His tag; also called HCCM1; recombinant CEACAM-1/CD66a protein
T1 sequence (looked up): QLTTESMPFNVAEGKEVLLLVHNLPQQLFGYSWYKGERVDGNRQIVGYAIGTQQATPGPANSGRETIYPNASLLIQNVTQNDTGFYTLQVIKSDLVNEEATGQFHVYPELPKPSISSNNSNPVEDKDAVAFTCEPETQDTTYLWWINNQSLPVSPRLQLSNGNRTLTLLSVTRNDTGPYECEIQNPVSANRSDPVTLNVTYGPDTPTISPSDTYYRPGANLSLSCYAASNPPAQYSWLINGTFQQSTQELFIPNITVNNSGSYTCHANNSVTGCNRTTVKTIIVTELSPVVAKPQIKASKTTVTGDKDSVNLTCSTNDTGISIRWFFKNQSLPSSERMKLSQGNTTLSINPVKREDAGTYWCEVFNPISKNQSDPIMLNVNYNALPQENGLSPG
Source text: All of the recombinant human CEACAM-1/CD66a protein (R&D systems; Cat No. 2244-CM, HCCM1), recombinant human CEACAM-5/CD66e protein (R&D systems; Cat. No. 4128-CM, HCCM5), recombinant human CEACAM-6/CD66c protein (R&D systems; Cat. No. 3934-CM, HCCM6), recombinant human CEACAM-3/CD66d protein (Sino Biological; Cat. No. 11933-H08H, HCCM3), human B7-H5/Gi24/VISTA protein (Sino Biological; Cat. No. 13482-H08H, HVISTA), recombinant human CEACAM-1/CD66a protein Bulk (R&D systems; Cat. No. 2244-CM, HCCM1 (bulk)), recombinant human CEACAM1-N domain-Kappa protein (Mogam, in-house production, HCCM1-N domain-kappa), and BSA protein (2.5 μg each) were dissolved in 10 ml of PBS, respectively, and dispensed into a 96-well plate at 100 μl/well, which was incubated at 4° C. overnight. Thereafter, each well was treated with 300 μl of 1% (v/v) bovine serum albumin, and incubated at 37° C. for 1 hour.
The diluted antibodies were dispensed into each well coated with each protein at 100 μl/well, and incubated at 37° C. for 1 hour. Then, each well was washed 3 times with a washing buffer prepared by diluting 10 μl of Tween 20 (Sigma-Aldrich; Cat. No. P9146) in 990 μl of PBS. Thereafter, 2 μl of HRP-conjugated human anti-IgG-Fc antibody (anti-human IgG Fc, Sigma Cat. No. A0170) was diluted in 10 ml of PBS, added to the wells at 100 μl/well, and incubated for 1 hour.
After completion of the reaction, the wells were washed three times with the washing buffer, and 100 μl of TMB solution was added to each well to induce color development. Then, 100 μl of 2 M H₂SO₄ was added to each well to stop the reaction, and the absorbance was measured at a wavelength of 450 nm.

[2] = target: T1, recombinant human CEACAM-1/CD66a …; test: ELISA on coated recombinant CEACAM-1/CD66a (0.25 µg/ml), HRP anti-human IgG, OD450
Method: Also, 2.5 μg of the recombinant CEACAM-1/CD66a protein (R&D systems; Cat. No. 2244-CM) was dissolved in 10 ml of PBS, and dispensed into 96-well plate (Nunc; Cat. No. 467679) at 100 μl/well and incubated overnight at 4° C. Thereafter, 300 μl of 1% (v/v) bovine serum albumin was added to each well, which was incubated at 37° C. for 1 hour.
Each of the diluted antibodies was subjected to serial dilutions in PBS at a 1:1 volume ratio for 6 times. Each of the antibodies diluted to 7 concentrations was dispensed into each well at 100 μl/well, which was incubated at 37° C. for 1 hour. Then, each well was washed 3 times with a washing buffer prepared by diluting 10 μl of Tween 20 (Sigma-Aldrich; Cat. No. P9146) in 990 μl of PBS. Thereafter, 2 μl of human IgG conjugated with HRP was diluted in 10 ml of PBS, which was then dispensed into each well at 100 μl/well and incubated for 1 hour.

[3] = target: T2, human CEACAM1 expressed on the cell surface (CEACAM1-Jurkat T cells); HEK293 cells transfected with human … (human, UniProt P13688 35-526); test: flow cytometry on CEACAM1-Jurkat T cells, antibody at 0.2 µg/ml
T2 construct: whole, on cells; also called CCM1
T2 sequence (looked up): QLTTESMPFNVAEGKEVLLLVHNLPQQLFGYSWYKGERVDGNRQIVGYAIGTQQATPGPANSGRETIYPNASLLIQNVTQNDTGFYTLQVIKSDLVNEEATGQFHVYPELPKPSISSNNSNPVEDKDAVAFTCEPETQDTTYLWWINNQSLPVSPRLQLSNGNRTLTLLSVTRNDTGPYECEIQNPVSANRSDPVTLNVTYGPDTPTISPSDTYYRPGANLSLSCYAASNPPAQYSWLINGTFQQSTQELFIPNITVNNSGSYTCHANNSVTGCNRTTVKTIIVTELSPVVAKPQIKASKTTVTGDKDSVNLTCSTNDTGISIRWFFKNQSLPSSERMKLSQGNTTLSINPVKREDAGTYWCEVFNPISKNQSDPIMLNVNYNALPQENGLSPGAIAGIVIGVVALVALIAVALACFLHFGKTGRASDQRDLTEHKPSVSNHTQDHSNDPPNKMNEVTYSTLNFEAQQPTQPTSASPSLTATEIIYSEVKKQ
Method: The CEACAM1-Jurkat T cells prepared above were treated with Fc block solution and incubated for 15 minutes. […] Herein, it is noted that the cell numbers were adjusted to 1×10⁵. The cells incubated with the antibodies were repeatedly subjected to the washing procedure of resuspending the cells in a FACS buffer and centrifuging the solution at 1,500 rpm.
PE-conjugated goat anti-human F(ab)₂; (Sigma; Cat. No. P8047)) was diluted in the FACS buffer at a volume ratio of 1:200, and then added to the cells at 100 μl/well. Cells were resuspended well and incubated at 4° C. for 30 minutes in a dark condition.
The cells incubated with the fixation buffer were repeatedly subjected to the washing procedure of resuspending the cells in a FACS buffer, centrifuging the solution at 1,500 rpm, and discarding the supernatant. The washed cells were resuspended in 200 μl of a FACS buffer, and the mean fluorescence intensities (MFIs) of the PE-labeled cells were monitored by a FACS LSR-Fortessa. All FACS analyses were conducted using the FlowJo software.

binding result [1]: binds
B1: C19 (antibody, human IgG4 S228P, lambda, V domains shown)
VH: EVQLLESGGGLVQPGGSLRLSCAASGFTFSGYAMSWVRQAPGKGLEWVSGIYHDGGSTYYADSVKGRFTISRDNSKNTLYLQMNSLRAEDTAVYYCARVTVLCTTYGCSSYDGMDVWGQGTLVTVSS
VL: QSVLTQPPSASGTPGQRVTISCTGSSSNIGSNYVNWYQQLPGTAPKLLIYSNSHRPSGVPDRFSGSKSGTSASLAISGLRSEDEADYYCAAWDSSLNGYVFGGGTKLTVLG

binding result [1]: binds
B2: C18 (antibody, human IgG4 S228P, lambda, V domains shown)
VH: EVQLLESGGGLVQPGGSLRLSCAASGFTFSNYDMSWVRQAPGKGLEWVSGISHSSGSKYYADSVKGRFTISRDNSKNTLYLQMNSLRAEDTAVYYCARDPLPCLIPKCSYYYAMDVWGQGTLVTVSS
VL: QSVLTQPPSAPGTPGQRVTISCSGSSSNIGSNAVTWYQQLPGTAPKLLIYADSHRPSGVPDRFSGSKSGTSASLAISGLRSEDEADYYCGSWDDSLNAYVFGGGTKLTVLG

binding result [1]: binds
B3: C22 (antibody, human IgG4 S228P, lambda, V domains shown)
VH: EVQLLESGGGLVQPGGSLRLSCAASGFTFSDYDMSWVRQAPGKGLEWVSMIYSGSSSKYYADSVKGRFTISRDNSKNTLYLQMNSLRAEDTAVYYCAKAPLPFYFRPKSYYYAMDVWGQGTLVTVSS
VL: B2 VL with P11S, A33N, D52N, D94S

EC50 (read off the curve) [2]: ~0.3 µg/mL
B4: C26 (antibody, human IgG4 S228P, lambda, V domains shown)
VH: EVQLLESGGGLVQPGGSLRLSCAASGFTFSGYDMSWVRQAPGKGLEWVSWISYGGGSIYYADSVKGRFTISRDNSKNTLYLQMNSLRAEDTAVYYCAKDRLPQKAVRHSYANGMDVWGQGTLVTVSS
VL: B2 VL with P11S, S31N, A33Y, S91A, D94Y, N97S, A98G

EC50 (read off the curve) [2]: ~0.2 µg/mL
B5: C25 (antibody, human IgG4 S228P, lambda, V domains shown)
VH: EVQLLESGGGLVQPGGSLRLSCAASGFTFSNYAMSWVRQAPGKGLEWVSVISHGGGSIYYADSVKGRLTISRDNSKNTLYLQMNSLRAEDTAVYYCARDPTKGYAPTFDYWGQGTLVTVSS
VL: B2 VL with P11S, S31N, A33Y, T35S, H54K, S91A, D94A, A98G
notes: Made in ExpiHEK293F cells, protein A purified. huIgG4 is the isotype control and anti-huIgG4 the detection reagent; the isotype is not otherwise stated; also called anti-CEACAM1 antibody C25

binding result [2]: binds
B6: C17 (antibody, human IgG4 S228P, lambda, V domains shown)
VH: EVQLLESGGGLVQPGGSLRLSCAASGFTFSDYSMSWVRQAPGKGLEWVSVIYPDDGNTYYADSVKGRFTISRDNSKNTLYLQMNSLRAEDTAVYYCARGSIWWLSLIPSSYNAMDVWGQGTLVAVSS
VL: B2 VL with P11S, S31N, T35N, D52N, S91A, D94A, A98G

percent of maximal binding level [3]: 80%
B7: 4R9 (antibody, human IgG4 S228P, lambda, V domains shown)
VH: B5 VH
VL: B2 VL with P11S, S31N, A33Y, T35S, H54R, S91A, D94L, A98G
notes: also called C25-derived clone 4R9

percent of maximal binding level [3]: 80%
B8: 4R9_H2-2 (antibody, human IgG4 S228P, lambda, V domains shown)
VH: B5 VH with T107L
VL: B2 VL with P11S, S31N, A33Y, T35S, H54R, S91A, D94L, A98G
notes: also called C25-derived clone 4R9_H2-2

percent of maximal binding level [3]: 80%
B9: 4R26 (antibody, human IgG4 S228P, lambda, V domains shown)
VH: B5 VH
VL: B2 VL with P11S, S31N, A33Y, T35S, H54K, P56L, S91A, D94G, S95R, A98G
notes: also called C25-derived clone 4R26

binding result [2]: binds
B10: C15 (antibody, human IgG4 S228P, lambda, V domains shown)
VH: EVQLLESGGGLVQPGGSLRLSCAASGFTFSSYSMSWVRQAPGKGLEWVSSISPNGGNKYYADSVKGRFTISRDNSKNTLYLQMNSLGAEDTAVYYCAKDPYNIYQPLFDYWGQGTLVTVSS
VL: QSVLTQPLSASGTPGQRVTISCSGSSSNIGNNYVNWYQQLPGTAPKLLIYANSNRPSGVPDRFSGSKSGTSASLAISGLRSEEEADYYCGTWDASLSAYVFGGGTKLTVLG
